Assay results taken from publication PMC4705923, “Structural Insights into the MMACHC-MMADHC Protein Complex Involved in Vitamin B12 Trafficking*” (The Journal of Biological Chemistry, 2015).
Changes are numbered by the printed parent chain. Numbers in names are those of the source.

T1: full-length human MMACHC (HsMMACHCFL) (human), Q9Y4U1
T1 chain: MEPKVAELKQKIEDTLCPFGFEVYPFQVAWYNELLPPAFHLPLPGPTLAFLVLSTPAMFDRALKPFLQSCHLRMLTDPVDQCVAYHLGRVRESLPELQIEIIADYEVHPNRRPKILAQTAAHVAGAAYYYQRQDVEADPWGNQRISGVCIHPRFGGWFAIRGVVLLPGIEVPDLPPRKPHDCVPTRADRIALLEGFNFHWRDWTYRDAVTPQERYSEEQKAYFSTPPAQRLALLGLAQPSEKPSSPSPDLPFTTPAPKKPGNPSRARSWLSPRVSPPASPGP

T2: full-length human MMACHC (HsMMACHCFL) (human, UniProt Q9Y4U1 1-282)
T2 construct: human MMACHC, full length (C-terminal Pro-rich region is aa 236-282); source: E. coli BL21(DE3)R3, purified (Ni-Sepharose, Superdex 200)
T2 sequence (looked up): T1 chain

T3: untagged HsMMACHCΔC (human, UniProt Q9Y4U1 1-235)
T3 construct: human MMACHC lacking the C-terminal Pro-rich region (aa 236-282); Form used for SAXS; not shown: His6, N-terminal, cleaved
T3 sequence (looked up): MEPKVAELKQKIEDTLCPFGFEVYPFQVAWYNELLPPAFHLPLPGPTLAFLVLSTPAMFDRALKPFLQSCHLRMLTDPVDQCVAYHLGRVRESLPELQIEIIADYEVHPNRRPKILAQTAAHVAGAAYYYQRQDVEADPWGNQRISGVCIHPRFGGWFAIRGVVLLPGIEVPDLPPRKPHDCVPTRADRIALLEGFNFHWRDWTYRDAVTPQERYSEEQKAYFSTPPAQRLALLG

T4: HsMMACHCΔC (human, UniProt Q9Y4U1 1-235)
T4 construct: human MMACHC lacking the C-terminal Pro-rich region (aa 236-282); Form used in BN-PAGE and size-exclusion chromatography; source: E. coli BL21(DE3)R3, purified (Ni-Sepharose, Superdex 200)
T4 sequence (looked up): T3 sequence (looked up)

B1: full-length human MMACHC (HsMMACHCFL), Q9Y4U1 1-282 (natural protein)
chain: T1 chain
B2: HsMMADHCΔ123 (domain or fragment, human, UniProt Q9H3L0 124-296, looked up)
chain: QGNDAPVEQEINSAETYFESARVECAIQTCPELLRKDFESLFPEVANGKLMILTVTQKTKNDMTVWSEEVEIEREVLLEKFINGAKEICYALRAEGYWADFIDPSSGLAFFGPYTNNTLFETDERYRHLGFSVDDLGCCKVIRHSLWGTHVVVGSIFTNATPDSHIMKKLSGN
notes: human MMADHC (296 aa) with N-terminal truncation Δ123; source: E. coli BL21(DE3)R3, purified (Ni-Sepharose, Superdex 200)
B3: HsMMADHCΔ123-D226A (domain or fragment, human, UniProt Q9H3L0 124-296, looked up)
chain: B2 chain with D103A
notes: human MMADHC Δ123 construct with p.D226A (stretch 2); also called p.D226A; source: E. coli BL21(DE3)R3, purified (Ni-Sepharose, Superdex 200)
B4: HsMMADHCΔ123-L259P (domain or fragment, human, UniProt Q9H3L0 124-296, looked up)
chain: B2 chain with L136P
notes: human MMADHC Δ123 construct with p.L259P (stretch 3); also called p.L259P; source: E. coli BL21(DE3)R3, purified (Ni-Sepharose, Superdex 200)
B5: HsMMADHCΔ123-M186A (domain or fragment, human, UniProt Q9H3L0 124-296, looked up)
chain: B2 chain with M63A
notes: human MMADHC Δ123 construct with p.M186A (stretch 1); also called p.M186A; source: E. coli BL21(DE3)R3, purified (Ni-Sepharose, Superdex 200)
B6: untagged MmMMADHCΔ128 (domain or fragment, Mus musculus, UniProt Q99LS1 129-296, looked up)
chain: PVEQEINSAETYFESAKVECAIQTCPELLRRDFESLFPEVANSKLMILTVTQKTENDMTVWSEEVEVEREVLLEKFISGAKEICYALRAEGYWADFIDPSSGVAFFGPYTNNTLFETDERYRHLGFSVDDLGCCKVIRHSLWGTHVVVGSIFTNATADSSIMRKLSGN
notes: mouse MMADHC aa 129-296; Form used for SAXS; not shown: His6, N-terminal, cleaved
B7: HsMMADHCΔ61 (domain or fragment, human, UniProt Q9H3L0 62-296, looked up)
chain: MGPFGPQDQRFQLPGNIGFDCHLNGTASQKKSLVHKTLPDVLAEPLSSERHEFVMAQYVNEFQGNDAPVEQEINSAETYFESARVECAIQTCPELLRKDFESLFPEVANGKLMILTVTQKTKNDMTVWSEEVEIEREVLLEKFINGAKEICYALRAEGYWADFIDPSSGLAFFGPYTNNTLFETDERYRHLGFSVDDLGCCKVIRHSLWGTHVVVGSIFTNATPDSHIMKKLSGN
notes: human MMADHC (296 aa) with N-terminal truncation Δ61; by analogy with MmMMADHCΔ128 = aa 129-296; source: E. coli BL21(DE3)R3, purified (Ni-Sepharose, Superdex 200)
B8: HsMMADHCΔ153 (domain or fragment, human, UniProt Q9H3L0 154-296, looked up)
chain: PELLRKDFESLFPEVANGKLMILTVTQKTKNDMTVWSEEVEIEREVLLEKFINGAKEICYALRAEGYWADFIDPSSGLAFFGPYTNNTLFETDERYRHLGFSVDDLGCCKVIRHSLWGTHVVVGSIFTNATPDSHIMKKLSGN
notes: source: E. coli BL21(DE3)R3, purified (Ni-Sepharose, Superdex 200)
B9: MmMMADHCΔ128 (M. musculus MMADHC aa 129-296) (domain or fragment, Mus musculus, UniProt Q99LS1 129-296, looked up)
chain: B6 chain
notes: Form used in BN-PAGE and size-exclusion chromatography; source: E. coli BL21(DE3)R3, purified (Ni-Sepharose, Superdex 200)

How the values were obtained:
[1] = molecular target: T1, full-length human MMACHC (HsMMACHCFL) …; experiment: native gel or EMSA; blue native-PAGE of single proteins, 25 μM; MMACHC alone and with MeCbl and GSH; MMADHC truncations alone; settings: remark: other sources report otherwise
[2] = molecular target: T2, full-length human MMACHC (HsMMACHCFL); experiment: native MS; about 4 mg/ml MMADHC and MMACHC incubated with 0.5 mM MeCbl and 2 mM reduced GSH, desalted into 50 mM ammonium acetate pH 6.5; Q-TOF, electrospray, positive ion mode; settings: both partners purified
[3] = molecular target: T2, full-length human MMACHC (HsMMACHCFL); experiment: native gel or EMSA; blue native-PAGE; 25 μM of each protein with 50 μM MeCbl and 8 mM GSH, preincubated in the dark at room temperature for 1 h; complex judged by an additional band; settings: both partners purified
untagged HsMMACHCΔC = molecular target: T3, untagged HsMMACHCΔC; experiment: SAXS; complex reconstituted from untagged proteins with MeCbl and GSH, purified by size-exclusion chromatography, 17 mg/ml; in-line HPLC column or batch mode; Diamond B21; settings: both partners purified
HsMMACHCΔC = molecular target: T4, HsMMACHCΔC; experiment: SEC; analytical size-exclusion chromatography of the two proteins with MeCbl and GSH; molecular weights from a calibration curve; settings: both partners purified

Binder	binding result [3]	further results
B1		stoichiometry N [1]: 2
B2		stoichiometry N [2]: 1
B3	binds	
B4	binds	
B5	binds	
B6		stoichiometry N (untagged HsMMACHCΔC): 1
B7	binds	
B8	binds	
B9		stoichiometry N (HsMMACHCΔC): 1
